From patent US20240174746A1 (Alector, published 2024)
Where a chain is given by its changes, count along the chain named.

B1: TM-78 (antibody, V domains shown)
VH: QVQLQQPGAELVKPGASVKLSCKASGYTFTNHWMHWVRQRPGQGLEWIGNIDPSDSDTHYNHKFKDKATLIVDKSSSTAYLQLSSLTSEDSAVFYCARSRGGYYDYGEAMDYWGQGTSVTVSS
VL: DIVMTQATPSIPVTPGESVSISCRSSKSLLHVNGNTYLFWFLQRPGQSPQLLIYRMSNLASGVPDRFSGSGSGTAFTLRISRVEAEDVGVYYCMQHLEYPFTFGSGTKLEIK
notes: Purified from mouse hybridoma
B2: TM-80 (antibody, V domains shown)
VH: QVQLQQPGAELVKPGASVKLSCKASGYTFTTFWMHWVKQRPGQGLEWIGNIDPSDSETHYNQEFKDKATLTVDRSSNTAYMQLSSLTSEDSAVYYCARSSNWDNFDYWGQGTAVTVSS
VL: B1 VL with T8A, I11V, K27Q, N35H, F39Y, A75V, A85T, V90I, E98Q
notes: Purified from mouse hybridoma
B3: TM-88 (antibody, V domains shown)
VH: EAQLQQSGPVLVKPGASVKMSCKTSGYTFTDYYINWVKQSHGKSLEWIGVINPYSGATYYTQKFKGKATLTVDKSSSTAYMELNSQTSEDSAVYYCARGGYDYGHWYFDVWGTGTTVTVSS
VL: ETTVTQSPASLSMAIGEKVTIRCITSSDIDDHMNWYRQKPGEPPEFLISEGNALRPGVPSRFSSSGYGTDFIFTIENILSEDVADYYCLQSDNLPLTFGAGTKLELK
notes: Purified from mouse hybridoma
B4: TM-94 (antibody, V domains shown)
VH: EVQLQQSGPELVKPGASVKIPCKASGYTFTDYNMDWVKQSHGKSLEWIGDINPYNGGTLYNQKFKGKATLTVDKSSNTAYMEIRSLTYEDTAVYYCARVGYHGTPDYWGQGTTVTVSS
VL: DVVMTQTPLSLPVSLGDQASISCRSSQSLVYSNGNTYLHWYLQRPGQSPKLLIYKVSNRFSGVPDRFSGSGSGTDFTLKISRVEAEDLGVYFCSQSTHVYTFGGGTKLEIK
notes: Purified from mouse hybridoma
B5: TM-86 (antibody, V domains shown)
VH: EVQLQQSGPVLVKPGASVKMSCKASGYTFTDYYIHWVKQSHGRSLEWIGVISPYNDNTNYNQKFKGKATLTVDKSSSTAYMELNSLTSEDSAVYYCVRTYYSNYFDYWGQGTTLTVSS
VL: DIVMTQSPSSLSVSAGEKVTMSCKSSQSLLNSGNQKNYLAWHQQRPGQPPKLLIYGASTRESGVPDRFTGSGSGTEFTLTISSVQAEDLAVYYCQNDHSYPLTFGAGTKLELK
notes: Purified from mouse hybridoma
B6: TM-85 (antibody, V domains shown)
VH: QVQLQQPGAELVRAGTSVKLSCKASGYTFIGYWMHWVKQRPGRGLEWIGRIDPYSGDTRYNEKFKNKATLTVDKPSSTAYMQLSSLTSEDSAVYYCARYGLGHAMDYWGQGTSVTVSS
VL: DIAMSQSQKFMSTSVGDRVSVTCKASQNVGTNVAWYQQKPGQSPKALIYSASYRYSGVPDRFTGSGSGTDFTLTISNVQSEDLAEYFCQQYNSYPLTFGAGTKLEMK
notes: Purified from mouse hybridoma
B7: TM-91 (antibody, V domains shown)
VH: DVQLQESGPGLVKPSQSLSLTCSVTGYSITSGYYWDWIRQFPGNKLEWMGYISYDGNNNYNPSLKNRISITRDTSKNQFFLKLNSVTTEDTATYYCARAVYSVGFAYWGQGTLVTVSS
VL: B6 VL with A3V, S5T, G30Y, A46P, A100G, M106I
notes: Purified from mouse hybridoma
B8: TM-84 (antibody, V domains shown)
VH: QVQLQQSGAELVKPGASVKMSCKASGYTFTTFPIEWMKQNHGKSLEWIGNFHPYNDDTKYNEKFKGKATLTVEKSSSTVYLELSRLTSDDSAVYYCARYFYGGMDYWGQGTSVTVSS
VL: DIQMTQSPASLSVSVGETVTITCRASENIYSSLGWYHQKQGKSPQLLVFAATNLADGVPSRFSGSGSGTQYSLKINSLQSEDFGTYYCQHLWSVPWTFGGGTKLEIK
notes: Purified from mouse hybridoma
B9: TM-93 (antibody, V domains shown)
VH: QVQLKESGPGLVAPSQSLSITCTVSGFSLSSYGISWVRQPPGKGLEWLGVIWTGGGTNYNSALESRLSITKDNSKSQVFLKMNSLQTDDTARYYCARNPPKIFYDYLMYFDYWGQGTTVTVSS
VL: DIVMTQSHKLMSTSVGDRVSITCKASQDVGSAVAWYQQKPGQSPQLLIYWSSTRLPGVPDRFTGSGSGTDFTLTISNVQSEVLADYFCQQYTSYPLTFGGGTKLEIK
notes: Purified from mouse hybridoma
B10: TM-87 (antibody, V domains shown)
VH: EVQLQQSGPVLVKPGASVKLSCKASGYTFTDYYMNWVKQSHGKSLEWIGVINPYNGATSYNQKFQDKATLTVDKSSSTAYMGLNSLTSEDSAVYYCANGNYDWYFDVWGTGTTVTVSS
VL: DVQITQSPSYLAASPGETITINCRASRSISKYLAWYQEKPGKTNKLLIYSGSTLQSGIPSRFSGSGSGTDFTLTISSLEPEDFAVYYCQQHNEYPLTFGAGTKLELK
notes: Purified from mouse hybridoma
B11: TM-92 (antibody, V domains shown)
VH: EVQLQQSGPELVKPGASVKIPCKASGYTFTDYTMDWVKQSPGKSLEWIGHINPNDGGTFYNQKFKGKATLTVDKSSSTAYMELRSLTSEDSAVYYCARWVYYYGISYEGGAMDYWGQGTSVTVSS
VL: B10 VL with R27K, V85M, L96W, A100G, L106I
notes: Purified from mouse hybridoma

Target: T1, cynomolgus (cyno) TMEM106B (cynomolgus, UniProt Q9NUM4 2-274 (human entry))
T1 construct: Full-length cDNA transiently transfected into HEK293 cells
Experiment: flow cytometry, HEK293 cells transiently transfected with cyno TMEM106B
Description: (§1) For screening of the hybridoma cell culture supernatants, humanTMEM106B-transfected HEK293 cells were aliquoted in 96-well round bottom plates (2×10⁵ cells per well) and incubated with 50 μL of hybridoma cell culture supernatant on ice for 30 minutes. […] Cell sorting was performed on a FACS Canto system (BD Biosciences) or iQue (Intellicyt), with sort gates drawn to exclude dead (i.e., propidium iodide-positive) cells. Median fluorescence intensity (MFI) of anti-mouse-APC MFI on TMEM106B+ HEK293 cells was calculated for each clone, and those displaying a signal of at least 2-fold over background compared to a secondary-antibody only well were taken forward for further analysis and characterization.

Binder	fold-change in binding over parental HEK293 cells [fold]
B1	6.88
B2	4.33
B3	7.57
B4	6.1
B5	5.81
B6	0.18
B7	2.45
B8	8.43
B9	9.21
B10	7.21
B11	5.7

Target: T2, human TMEM106B (human, UniProt Q9NUM4 2-274)
T2 construct: Full-length cDNA transiently transfected into HEK293 cells; also called huTMEM106B
Experiment: flow cytometry, HEK293 cells transiently transfected with human TMEM106B
Description: as §1

Binder	fold-change in binding over parental HEK293 cells [fold]
B1	9.6
B2	9.21
B3	7.81
B4	3.79
B5	9.73
B6	0.26
B7	5.22
B8	17.1
B9	11.5
B10	12.8
B11	9.14

Target: T3, mouse TMEM106B (mouse, UniProt Q80X71 2-275)
T3 construct: Full-length cDNA transiently transfected into HEK293 cells; also called muTMEM106B; murine TMEM106B
Experiment: flow cytometry, HEK293 cells transiently transfected with murine TMEM106B
Description: as §1

Binder	fold-change in binding over parental HEK293 cells [fold]
B1	0.99
B2	0.39
B3	5.84
B4	2.35
B5	5.78
B6	0.19
B7	2.41
B8	9.62
B9	8.83
B10	27
B11	5.15
